“And” between values parts separate entries of the source, which are not always exact repeats. Identical values can stand only once.

In data set [1] the test system is GFP^2-Pflu1-RLuc2 fusion protein (Pflu sensor 1).
Data set [2] has as its system GFP^2-plas1-RLuc2 fusion protein (BRET^2 plasmin sensor).
Data set [3] deals with GFP^2-Pflu-H2-RLuc2 fusion protein.
Data set [4] deals with GFP^2-Pflu-H1-RLuc2 fusion protein.
Data set [5] relates to GFP^2-Pflu-H3-RLuc2 fusion protein.
Data set [6] has as its system GFP^2-Pflu-H4-RLuc2 fusion protein.
Data set [7] concerns GFP^2-Pflu2-RLuc2 fusion protein (Pflu sensor 2).
Data set [8] has as its system GFP^2-Pflu3-RLuc2 fusion protein (Pflu sensor 3).

“crude bacterial protease from Pseudomonas fluorescens strain 117”: in data set [1], the “Reduction in the BRET ratio, 1 nM protease, UHT milk, 10 minutes” value was 71.2% reduction with the bacterial protease from strain 117 and the “Reduction in the BRET ratio, 1 nM protease, buffer, 10 minutes” value is on record as 95% reduction in the BRET ratio.

As to “crude bacterial protease from Pseudomonas fluorescens strain 65”, in data set [2], the Linear range (10%-90% BRET^2 response), 50% full fat UHT milk was 10 nM and 90 nM; the Linear range (10%-90% BRET^2 response), 50% full fat UHT milk, protease concentration by BSA standard was 116 nM and 1040 nM; the Selectivity for bacterial protease over bovine plasmin was 2 fold; the Selectivity for bacterial protease over bovine plasmin, protease concentration by BSA standard amounted to 0.2 fold. In data set [2], the Selectivity for bacterial protease over human plasmin turned out to be 0.1 fold and the Selectivity for bacterial protease over human plasmin, protease concentration by BSA standard was 0.01 fold. Also, in data set [3], the “BRET^2 response to 1 nM bacterial protease in buffer, 10 minutes” value (“BRET^2 response … 10 minutes” for short) came out at 31.9%; the Bacterial protease response (%), BRET^2, 1 nM in UHT milk turned out to be 6.6%; the Selectivity (ratio of Bacterial protease response to Plasmin response), UHT milk came out at 0.8. Besides, in data set [4], the “BRET^2 response … 10 minutes” value was determined as 49.5%; the Bacterial protease response (%), BRET^2, 1 nM in UHT milk was found to be 6.7%; the Selectivity (ratio of Bacterial protease response to Plasmin response), UHT milk is 1.3. Further, in data set [5], the “BRET^2 response … 10 minutes” value is on record as 89.7%; the Bacterial protease response (%), BRET^2, 1 nM in UHT milk worked out at 36.3%; the “More responsive to 1 nM bacterial protease compared to Pflu H1 sensor, buffer” value is given as 82%; the “More responsive to 1 nM bacterial protease compared to Pflu H2 sensor, buffer” value was 182%. Also, in data set [5], the “More responsive to 1 nM bacterial protease compared to Pflu H4 sensor, buffer” value is 39%; the Selectivity (ratio of Bacterial protease response to Plasmin response), UHT milk was 40.3; the Selectivity for bacterial protease over bovine plasmin, protease concentration by BSA standard stood at 32 fold; the Selectivity for bacterial protease over bovine plasmin, raw milk came to 376 fold. Further, in data set [6], the “BRET^2 response … 10 minutes” value came out at 64.5%; the Bacterial protease response (%), BRET^2, 1 nM in UHT milk amounted to 17.1%; the Selectivity (ratio of Bacterial protease response to Plasmin response), UHT milk was 2.7. Also, in data set [1], the “Reduction in the BRET ratio, 1 nM protease, UHT milk, 10 minutes” value is on record as 80.6% reduction in the BRET ratio with strain 65 bacterial proteases; the “Reduction in the BRET ratio, 1 nM protease, buffer, 10 minutes” value is reported as 95% reduction in the BRET ratio; the Selectivity for bacterial protease over bovine plasmin was determined as 238 fold; the Selectivity for bacterial protease over bovine plasmin, protease concentration by BSA standard came to 20 fold. In addition, in data set [1], the Selectivity for bacterial protease over human plasmin was determined as 174 fold; the Selectivity for bacterial protease over human plasmin, protease concentration by BSA standard came to 15 fold; the “Sensitivity to bacterial proteases relative to the plasmin sensor, raw milk, 10 minute incubation” value stood at 10× more sensitive. Moreover, in data set [7], the Linear range (10%-90% BRET^2 response), 50% full fat UHT milk, protease concentration by BSA standard was 6.7 nM and 13.8 nM; the Selectivity for bacterial protease over human plasmin was found to be 353 fold; the Selectivity for bacterial protease over human plasmin, protease concentration by BSA standard came out at 30 fold. Besides, in data set [8], the Selectivity for bacterial protease over human plasmin turned out to be 563 fold and the Selectivity for bacterial protease over human plasmin, protease concentration by BSA standard was determined as 48.5 fold.

The values above are taken from patent US20190345535.
